The assay addresses T1, FLAG-hSIRT1-FL (full length human SIRT1, FLAG-tagged) (human, UniProt Q96EB6 1-747).
T1 sequence (looked up): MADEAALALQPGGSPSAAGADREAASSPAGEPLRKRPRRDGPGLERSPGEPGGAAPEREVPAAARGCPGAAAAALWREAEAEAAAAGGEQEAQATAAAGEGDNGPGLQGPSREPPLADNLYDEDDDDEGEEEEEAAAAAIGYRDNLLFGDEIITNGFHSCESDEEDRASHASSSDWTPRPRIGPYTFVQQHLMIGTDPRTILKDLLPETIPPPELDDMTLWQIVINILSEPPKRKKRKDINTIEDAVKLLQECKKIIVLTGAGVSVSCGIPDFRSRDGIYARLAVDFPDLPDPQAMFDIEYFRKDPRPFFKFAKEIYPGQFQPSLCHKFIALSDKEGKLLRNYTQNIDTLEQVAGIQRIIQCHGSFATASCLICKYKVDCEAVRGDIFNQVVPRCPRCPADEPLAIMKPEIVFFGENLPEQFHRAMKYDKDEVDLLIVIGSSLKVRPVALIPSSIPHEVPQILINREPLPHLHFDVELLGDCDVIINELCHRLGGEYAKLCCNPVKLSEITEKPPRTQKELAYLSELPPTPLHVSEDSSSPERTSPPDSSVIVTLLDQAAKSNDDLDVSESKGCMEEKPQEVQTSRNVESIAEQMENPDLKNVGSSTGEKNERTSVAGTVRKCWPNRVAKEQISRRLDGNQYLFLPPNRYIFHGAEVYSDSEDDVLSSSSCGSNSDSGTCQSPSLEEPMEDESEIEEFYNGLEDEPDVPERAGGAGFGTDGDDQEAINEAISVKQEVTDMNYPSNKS
Nature of the assay: pull-down.

B1: GST-TDG(67–308) (domain or fragment, human, UniProt Q13569 67-308, looked up)
chain: TTEPKQPVEPKKPVESKKSGKSAKSKEKQEKITDTFKVKRKVDRFNGVSEAELLTKTLPDILTFNLDIVIIGINPGLMAAYKGHHYPGPGNHFWKCLFMSGLSEVQLNHMDDHTLPGKYGIGFTNMVERTTPGSKDLSSKEFREGGRILVQKLQKYQPRIAVFNGKCIYEIFSKEVFGVKVKNLEFGLQPHKIPDTETLCYVMPSSSARCAQFPRAQDKVHYYIKLKDLRDQLKGIERNMDV
As to B1, the binding result was “binds”.

Values taken from publication PMC4465237 (The Biochemical journal, 2013).
